Experimental data taken from patent US8013115B1, “Use of stabilised synthetic compounds in immunoassay” (Bio-Rad Pasteur, priority 1999, dated 2011).
[ ]: non-standard residue; d: D form. Hx = not defined here

B1: peptide TRP 1116 Ac: Ac-…-(TEPH)-AKK-Hx-PLELAGLG-(FAEL)-QDLCRQ-NH2 (peptide)
peptide: Ac-GSSNYRAYATEPHAKK[Hx]PLELAGLGFAELQDLCRQ-NH2
modifications: reading uncertain; also: printed as Ac-GSSNYRAYA-(TEPH)-AKK-Hx-PLELAGLG-(FAEL)-QDLCRQ-NH2

Columns and labels:
[1] = format: physicochemical
Procedure: (§1) The stability of the compounds PEP 5, PEP 9 and PEP 10 was evaluated by ELISA assay, with chemiluminescence reading (signal expressed in Relative Luminescence Units or RLU), with the aid of the automated device Access® from the company Beckman, distributed by Bio-Rad (Marnes la Coquette, France), and then compared with that of a prior art noncyclized reference biepitopic compound (TRP 1116 Ac) analysed in the same manner.

[2] = Linearity of the dilution curves / dilutability, ELISA signal (RLU) versus dilution
Procedure: as §1
Standard for acceptance of the dilutions: the ratio experimental signal/theoretical signal at a given dilution should be equal to 1.00±0.2, for the compound to be dilutable. The dilutions giving signals of less than 100 000 RLU units should not be taken into account.
Results expressed in signal units (RLU)

[3] = target: antibodies of the ELISA assay with chemiluminescence reading on the automated device Access (Beckman); assay: ELISA immunoassay, chemiluminescence, Access device; compound diluted 1/10 000
[4] = target: antibodies of the ELISA assay with chemiluminescence reading on the automated device Access (Beckman); assay: ELISA immunoassay, chemiluminescence, Access device; compound diluted 1/20 000
[5] = target: antibodies of the ELISA assay with chemiluminescence reading on the automated device Access (Beckman); assay: ELISA immunoassay, chemiluminescence, Access device; compound diluted 1/40 000
[6] = target: antibodies of the ELISA assay with chemiluminescence reading on the automated device Access (Beckman); assay: ELISA immunoassay, chemiluminescence, Access device; compound diluted 1/50 000
[7] = target: antibodies of the ELISA assay with chemiluminescence reading on the automated device Access (Beckman); assay: ELISA immunoassay, chemiluminescence, Access device; compound diluted 1/100 000
[8] = target: antibodies of the ELISA assay with chemiluminescence reading on the automated device Access (Beckman); assay: ELISA immunoassay, chemiluminescence, Access device; compound diluted 1/300 000

Row | Molecule | Stability ratio signal at DO + 24 H/signal at DO [1] | Experimental signal ([2]; dilution 1/10 000) | Experimental signal ([2]; dilution 1/20 000) | Experimental signal ([2]; dilution 1/40 000) | Experimental signal ([2]; dilution 1/50 000) | Experimental signal ([2]; dilution 1/100 000) | Experimental signal ([2]; dilution 1/300 000) | Experimental signal (RLU) [3] | Experimental signal (RLU) [4] | Experimental signal (RLU) [5] | Experimental signal (RLU) [6] | Experimental signal (RLU) [7] | Experimental signal (RLU) [8]
1 | Ac-GSSNYRAYA-(TEPH)-AKK-Hx-PLELAGLG-(FAEL)-QDLCRQ-NH2 (SEQ ID NO: 6) (Ac-GSSNYRAYATEPHAKK[Hx]PLELAGLGFAELQDLCRQ-NH2; not fully specified; printed as Ac-GSSNYRAYA-(TEPH)-AKK-Hx-PLELAGLG-(FAEL)-QDLCRQ-NH2; reading uncertain; also: TEPH, Hx, FAEL described as non-natural linkers) [TRP 1116 Ac] | 0.77 | 11 039 697 RLU | 3 779 387 RLU | 1 573 457 RLU | 1 125 417 RLU | 471 714 RLU | 132 054 RLU | – | – | – | – | – | –
2 | B1 | – | – | – | – | – | – | – | 1.1e+07 RLU | 3.78e+06 RLU | 1.57e+06 RLU | 1.13e+06 RLU | 472000 RLU | 132000 RLU
